Data set [1] concerns HeLa Kyoto. The data set can be described thus: solubility in G1/S (NP-40 vs SDS abundance) (log2 ratio); higher = more soluble. Conditions: cell cycle stage: G1/S.
For data set [2], the system named is HeLa Kyoto. Description: melting temperature (median over replicates), in situ; higher = more thermally stable.
In data set [3] the test system is HeLa Kyoto. The data set can be described thus: solubility change mitosis vs G1/S (difference of NP-40 vs SDS log2 ratios) (log2 ratio difference); higher = more soluble in mitosis.
The subject of data set [4] is HeLa Kyoto. Description: thermal stability score vs G1/S (z-score of summed log2 fold changes over temperatures); higher = more thermally stable than in G1/S.
[5] abbreviates: cell cycle stage: early G1 (4.5 h after nocodazole release).
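For melting temperature (median over replicates), in situ in this document: HeLa Kyoto cells synchronized by double thymidine or nocodazole block, proteins quantified by TMT10plex mass spectrometry, three independent biological replicates.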
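For solubility change mitosis vs G1/S (difference of NP-40 vs SDS log2 ratios) in this document: synchronized HeLa Kyoto cells (double thymidine block for G1/S, nocodazole release for mitosis), protein amounts in NP-40 versus SDS lysates quantified by mass spectrometry, three biological replicates.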
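For solubility in G1/S (NP-40 vs SDS abundance) in this document: HeLa Kyoto cells arrested at G1/S by double thymidine block, proteins quantified by TMT10plex mass spectrometry in mild NP-40 versus SDS extracts, three biological replicates.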
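For thermal stability score vs G1/S (z-score of summed log2 fold changes over temperatures) in this document: synchronized HeLa Kyoto cells, proteins quantified by TMT10plex mass spectrometry, three biological replicates, mitosis taken 0.5 h after nocodazole release, G1/S directly after double thymidine block.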

Sequence of CHID1 (chain, as listed by the source): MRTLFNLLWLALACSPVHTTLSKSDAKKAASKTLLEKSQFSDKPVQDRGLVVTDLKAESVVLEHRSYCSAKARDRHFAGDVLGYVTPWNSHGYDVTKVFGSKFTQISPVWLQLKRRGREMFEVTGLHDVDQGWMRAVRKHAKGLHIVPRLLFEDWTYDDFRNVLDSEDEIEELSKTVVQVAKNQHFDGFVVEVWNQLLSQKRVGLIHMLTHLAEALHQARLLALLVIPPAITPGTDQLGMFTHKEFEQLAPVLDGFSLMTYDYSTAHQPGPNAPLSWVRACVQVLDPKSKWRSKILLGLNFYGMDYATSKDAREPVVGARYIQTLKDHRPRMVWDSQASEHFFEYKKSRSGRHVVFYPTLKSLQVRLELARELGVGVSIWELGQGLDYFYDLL

As to CHID1, in the data set on HeLa Kyoto [1], the “solubility in G1/S (log2)” value was -0.16. Further, the melting temperature amounted to 53.4 °C in the data set with HeLa Kyoto [2] (cell cycle stage: G1/S) and 54 °C in the data set on HeLa Kyoto [2] (cell cycle stage: mitosis). The “solubility change mitosis (log2)” value with HeLa Kyoto [3] is -0.0199. Also, the thermal stability score stood at 0.711 with HeLa Kyoto [4] (setting [5]) and 2.28 in the data set with HeLa Kyoto [4] (cell cycle stage: mitosis).

As to “MLHLSAAPPAPPPEVTATARPCLCSVGRRGDGGKMAAAGALERSFVELSGAERERPRHFREFTVCSIGTANAVAGAVKYSESAGGFYYVESGKLFSVTRNRFIHWKTSGDTLELMEESLDINLLNNAIRLKFQNCSVLPGGVYVSETQNRVIILMLTNQTVHRLLLPHPSRMYRSELVVDSQMQSIFTDIGKVDFTDPCNYQLIPAVPGISPNSTASTAWLSSDGEALFALPCASGGIFVLKLPPYDIPGMVSVVELKQSSVMQRLLTGWMPTAIRGDQSPSDRPLSLAVHCVEHDAFIFALCQDHKLRMWSYKEQMCLMVADMLEYVPVKKDLRLTAGTGHKLRLAYSPTMGLYLGIYMHAPKRGQFCIFQLVSTESNRYSLDHISSLFTSQETLIDFALTSTDIWALWHDAENQTVVKYINFEHNVAGQWNPVFMQPLPEEEIVIRDDQDPREMYLQSLFTPGQFTNEALCKALQIFCRGTERNLDLSWSELKKEVTLAVENELQGSVTEYEFSQEEFRNLQQEFWCKFYACCLQYQEALSHPLALHLNPHTNMVCLLKKGYLSFLIPSSLVDHLYLLPYENLLTEDETTISDDVDIARDVICLIKCLRLIEESVTVDMSVIMEMSCYNLQSPEKAAEQILEDMITIDVENVMEDICSKLQEIRNPIHAIGLLIREMDYETEVEMEKGFNPAQPLNIRMNLTQLYGSNTAGYIVCRGVHKIASTRFLICRDLLILQQLLMRLGDAVIWGTGQLFQAQQDLLHRTAPLLLSYYLIKWGSECLATDVPLDTLESNLQHLSVLELTDSGALMANRFVSSPQTIVELFFQEVARKHIISHLFSQPKAPLSQTGLNWPEMITAITSYLLQLLWPSNPGCLFLECLMGNCQYVQLQDYIQLLHPWCQVNVGSCRFMLGRCYLVTGEGQKALECFCQAASEVGKEEFLDRLIRSEDGEIVSTPRLQYYDKVLRLLDVIGLPELVIQLATSAITEAGDDWKSQATLRTCIFKHHLDLGHNSQAYEALTQIPDSSRQLDCLRQLVVVLCERSQLQDLVEFPYVNLHNEVVGIIESRARAVDLMTHNYYELLYAFHIYRHNYRKAGTVMFEYGMRLGREVRTLRGLEKQGNCYLAALNCLRLIRPEYAWIVQPVSGAVYDRPGASPKRNHDGECTAAPTNRQIEILELEDLEKECSLARIRLTLAQHDPSAVAVAGSSSAEEMVTLLVQAGLFDTAISLCQTFKLPLTPVFEGLAFKCIKLQFGGEAAQAEAWAWLAANQLSSVITTKESSATDEAWRLLSTYLERYKVQNNLYHHCVINKLLSHGVPLPNWLINSYKKVDAAELLRLYLNYDLLEEAVDLVSEYVDAVLGKGHQYFGIEFPLSATAPMVWLPYSSIDQLLQALGENSANSHNIALSQKILDKLEDYQQKVDKATRDLLYRRTL [NUP160]”, in the data set with HeLa Kyoto [1], the “solubility in G1/S (log2)” value was -0.58. Moreover, the figures for the melting temperature in the data set with HeLa Kyoto [2] (cell cycle stage: G1/S) and with HeLa Kyoto [2] (cell cycle stage: mitosis) were 52.1 °C and 49.4 °C, respectively. For the same substance, the “solubility change mitosis (log2)” value in the data set on HeLa Kyoto [3] came out at 0.135. The thermal stability score in the data set on HeLa Kyoto [4] (setting [5]) was -3.22; in the data set with HeLa Kyoto [4] (cell cycle stage: mitosis) it was -3.66.

In the case of DNAJA1, in the data set on HeLa Kyoto [1], the “solubility in G1/S (log2)” value is -0.016. The melting temperature with HeLa Kyoto [2] (cell cycle stage: G1/S) amounted to 51.8 °C; with HeLa Kyoto [2] (cell cycle stage: mitosis) it was 52.1 °C. For the same substance, in the data set on HeLa Kyoto [3], the “solubility change mitosis (log2)” value stood at 0.000386. The thermal stability score in the data set with HeLa Kyoto [4] (setting [5]) was -1.37; in the data set with HeLa Kyoto [4] (cell cycle stage: mitosis) it was -1.92.

Regarding “MTERFDCHHCNESLFGKKYILREESPYCVVCFETLFANTCEECGKPIGCDCKDLSYKDRHWHEACFHCSQCRNSLVDKPFAAKEDQLLCTDCYSNEYSSKCQECKKTIMPGTRKMEYKGSSWHETCFICHRCQQPIGTKSFIPKDNQNFCVPCYEKQHAMQCVQCKKPITTGGVTYREQPWHKECFVCTACRKQLSGQRFTARDDFAYCLNCFCDLYAKKCAGCTNPISGLGGTKYISFEERQWHNDCFNCKKCSLSLVGRGFLTERDDILCPDCGKDI [FHL2]”, in the data set with HeLa Kyoto [1], the “solubility in G1/S (log2)” value is -0.304. Also, the results for the melting temperature with HeLa Kyoto [2] (cell cycle stage: G1/S) and with HeLa Kyoto [2] (cell cycle stage: mitosis) were 52 °C and 51.9 °C, respectively. Moreover, in the data set on HeLa Kyoto [3], the “solubility change mitosis (log2)” value was -0.0906. In addition, the thermal stability score in the data set with HeLa Kyoto [4] (setting [5]) is -1.09; in the data set on HeLa Kyoto [4] (cell cycle stage: mitosis) it was -1.97.

In the case of “MMRLRGSGMLRDLLLRSPAGVSATLRRAQPLVTLCRRPRGGGRPAAGPAAAARLHPWWGGGGWPAEPLARGLSSSPSEILQELGKGSTHPQPGVSPPAAPAAPGPKDGPGETDAFGNSEGKELVASGENKIKQGLLPSLEDLLFYTIAEGQEKIPVHKFITALKSTGLRTSDPRLKECMDMLRLTLQTTSDGVMLDKDLFKKCVQSNIVLLTQAFRRKFVIPDFMSFTSHIDELYESAKKQSGGKVADYIPQLAKFSPDLWGVSVCTVDGQRHSTGDTKVPFCLQSCVKPLKYAIAVNDLGTEYVHRYVGKEPSGLRFNKLFLNEDDKPHNPMVNAGAIVVTSLIKQGVNNAEKFDYVMQFLNKMAGNEYVGFSNATFQSERESGDRNFAIGYYLKEKKCFPEGTDMVGILDFYFQLCSIEVTCESASVMAATLANGGFCPITGERVLSPEAVRNTLSLMHSCGMYDFSGQFAFHVGLPAKSGVAGGILLVVPNVMGMMCWSPPLDKMGNSVKGIHFCHDLVSLCNFHNYDNLRHFAKKLDPRREGGDQRVKSVINLLFAAYTGDVSALRRFALSAMDMEQRDYDSRTALHVAAAEGHVEVVKFLLEACKVNPFPKDRWNNTPMDEALHFGHHDVFKILQEYQVQYTPQGDSDNGKENQTVHKNLDGLL”, the “solubility in G1/S (log2)” value in the data set on HeLa Kyoto [1] stood at 0.0237. The values for the melting temperature in the data set with HeLa Kyoto [2] (cell cycle stage: G1/S) and in the data set with HeLa Kyoto [2] (cell cycle stage: mitosis) were 49.7 °C and 50.4 °C, respectively. In addition, the “solubility change mitosis (log2)” value in the data set with HeLa Kyoto [3] is -0.0383. For the same substance, the thermal stability score with HeLa Kyoto [4] (setting [5]) amounted to 0.55; with HeLa Kyoto [4] (cell cycle stage: mitosis), 2.21.

The record behind these values is the supplement of paper PMC5998384.
